Assay in all cases: cells, lysate or membranes named
The subject of series [1] is O=C(CO)COP(=O)(O)O. Type of series: biochemical, E. coli. To be noted: other: substrate dihydroxyacetone phosphate 0.15-1.5 mM, crude extract, imidazole-HCl pH 7.0, 30° C. The text has this:
(§1) 1,2-Propanediol pathway branches from glycolysis and competes for the intermediate dihydroxyacetone phosphate, with the glycolytic pathway. […] We amplified the mgsA genes from the microorganisms: C. acetobutylicum (ATCC#824), B. subtilis 168, C. difficile R20291, E. coli MG1655, T. thermophilus HB27, K. pneumoniae MGH78578, P. fluorescens Pf-5, and R. eutropha H16 respectively. These genes were cloned and expressed in wild type E. coli BW25113 using eight plasmids pRJ1-pRJ8. Each gene was under the control of the IPTG-inducible pLlacO1 promoter. Using dihydroxyacetone-phosphate as the substrate, we successfully detected the functional expression of all mgsA genes in vitro, where the specific activities varied from 0.0052 U/mg to 0.1242 U/mg (Table 1). […] Without the over-expression of mgsA gene, we also detected the native expression of E. coli mgsA, which gave a specific activity of only 0.0008 U/mg, much lower than that of any over-expression.
(§2) Using the primers listed in Table 5, the mgsA genes were PCR amplified from the genomic DNA of C. acetobutylicum (ATCC824), B. subtilis 168, Clostridium difficile R20291, E. coli MG1655, Thermus thermophilus HB27, K. pneumoniae MGH78578, Pseudomonas fluorescens Pf-5, and Ralstonia eutropha H16 respectively. […]
(§3) The assay was carried out using a two-step procedure. […] The samples were diluted 10 times before measuring the absorbance at 550 nm.

In series [2] the test system is CC(=O)C=O. To be noted: other: methylglyoxal 20-120 mM, 0.25 mM NADH, crude extract, imidazole-HCl pH 7.0, 37° C.
Series [3] has as its system CC(=O)CO. To be noted: other: hydroxyacetone 20-120 mM, 0.25 mM NADH, crude extract, imidazole-HCl pH 7.0, 37° C.
Series [4] has as its system O=C(CO)COP(=O)(O)O. The series is classed as biochemical, C. difficile. To be noted: other: substrate dihydroxyacetone phosphate 0.15-1.5 mM, crude extract, imidazole-HCl pH 7.0, 30° C.
Source text: as §1, §2, §3

For series [5], the system named is O=C(CO)COP(=O)(O)O. Type of series: biochemical, K. pneumoniae. To be noted: other: substrate dihydroxyacetone phosphate 0.15-1.5 mM, crude extract, imidazole-HCl pH 7.0, 30° C.
Source text: as §1, §2, §3

In general, Km refers to the substrate concentration at which the rate is half of its maximum.

As to “E. coli MG1655 methylglyoxal synthase (mgsA), wild type (Escherichia coli K-12)”, in series [1], the Km came to 1418 ± 120 µM. Turning to “K. pneumoniae MGH78578 diol dehydrogenase (budC), wild type (Klebsiella pneumoniae subsp. pneumoniae MGH 78578)”, the Michaelis constant (Km) was 780 ± 30 µM in series [2] and 1830 ± 630 µM in series [3]. Turning to “Clostridium difficile R20291 methylglyoxal synthase (mgsA), wild type (Clostridioides difficile R20291)”, the Km in series [4] amounted to 1439 ± 60 µM. Take “Klebsiella pneumoniae MGH78578 methylglyoxal synthase (mgsA), wild type (Klebsiella pneumoniae subsp. pneumoniae MGH 78578)”: the Km in series [5] turned out to be 2820 ± 300 µM.
